{"source": "the DeepSol protein solubility set", "test": "soluble on expression in E. coli; label from the status in PepcDB or PDB records", "data": [{"sequence": "MGSDKIHHHHHHMITPTIRGGHEVNYLVAVEGAKVGDAIAIRVERIRVLSKAASSGVDSPREGSFVGDPYVAKKCPVCNEPWPEFEVVGIGEDAIRCKKCGAPVSPFRMINGYTMVFDHEGGVGVTVDKKTAEMIAKNAWEWHALPKNSKQVPILIFAKADIVGVPSRIRPFLGQLGTIPAVDIPDSHNAGDFGYFLINAPHPYAISKEDYETKLTDGHLDVDSVREGAIVIAPVKVEGGGVYAGDAHAMEGDGEVAGHTTDVTAETTVTVEVIKGLNLEGPILLPPEEDLPPLAKPWRKDEWEKVERLAKKFGIEVEPVAPLQIIGSGPTINDAALNGFKRAAKLFGMSVEEVKNRVTITGAVEIGRLPGIVQVSMQVPLRILEKLGIYELVVKHYNLPF", "values": [{"measurement": "soluble on expression in E. coli", "value": "not soluble"}]}, {"sequence": "MDAIMMEHRNDFWVFGYGSLMWRPGFAHVETVRARLHGYRRSLCIYSHVHRGTPDHPGLVLGLDTGGSCLGIAFRVPGDMTDEVMTYLREREMANKVYHEKKLHLRLADGRIVEAVAYVADRRHRQYAGRMTSEKAAAIIASAQGESGANIDYVTNTLMHLRNMRVRDHALEHINELVLAAASRQANNAALEHHHHHH", "values": [{"measurement": "soluble on expression in E. coli", "value": "soluble"}]}, {"sequence": "LTSKLVQAGANVKVIMTESACRFVSPLTFQALSRHEVYTDTFKEQNPSVISHIDAADWADLIIVAPATANVIGKLANGIADDMLTTTLLAATAPVWIAPAMNVHMYDHPAVKRNISVLYQDGYCFIEPSEGYLACGYVGKGRLEEPENIVKLAEKHFAEETSAPLEGKHVVITAGPTREAIDPVRFFTNKSTGKMGYALAEAAVQLGARVILISGPVSLDQPKGLAEFIPVQSAADMREAVLSVYDASDIVIKTAAVADFTPKTVFDHKMKKQDGGMTLELKRTVDILKELGEKKKEQILVGFAAETQDIEHYARKKLAAKNLDLIVANDVKANGAGFGADTNIVTIFFKDGHKRELPIMSKLDVSFEILQEIAALSKQTGERS", "values": [{"measurement": "soluble on expression in E. coli", "value": "not soluble"}]}, {"sequence": "MEGSQQTITSKQLVRMLKDASRGSKGKGSGEMKFCFLIGAGASISSGIPSGAKLAWDWLQQIKEDCDGEDFEDWKIEIKMPDQHIEERVGEFYPEIYEKRFGHAPETGYDYIRGLMEGREPSLGYLILANIMVREKHNVVITTNFDNLLEDAIRTYTKEKPFIAGHEALADYVPKRSDRPIILKLHRDLFLQPFSDQLNTDILQAAWESILGKFLSDYHLIVLGYGGNDGSLMNYLLKLKNRKPIYWCVRNTDKATSKSLWNTLSPKAKRLLKNDGYLVPIDDFDRFMYDCYAALGYKFLEGIEKIEKPKSIHEILKPNYARIESIQTQLRQLSQTEEELSKESFQSIKSFLPDSWMWILKANQEKDIDKKDKIYREGIAKYPQDANLLGDYADFLCDICHD", "values": [{"measurement": "soluble on expression in E. coli", "value": "not soluble"}]}, {"sequence": "MSNNGSSPLVLWYNQLGMKDVDRVGGKNASLGEMITNLSGMGVSVPNGFATTADAFNQFLDQSGVNQRIYELLDKTDIDDVTQLAKAGAQIRQWIIDTPFQPELENAIREAYAQLSADDENASFAVRSSATAEDMPDASFAGQQETFLNVQGFDAVLVAVKHVFASLFNDRAISYRVHQGYDHRGVALSAGVQRMVRSDLASSGVMFSIDTESGFDQVVFITSAWGLGEMVVQGAVNPDEFYVHKPTLAANRPAIVRRTMGSKKIRMVYAPTQEHGKQVKIEDVPQEQRDIFSLTNEEVQELAKQAVQIEKHYGHPMDIEWAKDGHTGKLFIVQARPETVRSRGQVMERYTLHSQGKIIAEGRAIGHRIGAGPVKVIHDISEMNRIEPGDVLVTDMTDPDWEPIMKKASAIVTNRGGRTCHAAIIARELGIPAVVGCGDATERMKDGENVTVSCAEGDTGYVYAELLEFSVKSSSVETMPDLPLKVMMNVGNPDRAFDFACLPNEGVGLARLEFIINRMIGVHPRALLEFDDQEPQLQNEIREMMKGFDSPREFYVGRLTEGIATLGAAFYPKRVIVRLSDFKSNEYANLVGGERYEPDEENPMLGFRGAGRYVSDSFRDCFALECEAVKRVRNDMGLTNVEIMIPFVRTVDQAKAVVEELARQGLKRGENGLKIIMMCEIPSNALLAEQFLEYFDGFSIGSNDMTQLALGLDRDSGVVSELFDERNDAVKALLSMAIRAAKKQGKYVGICGQGPSDHEDFAAWLMEEGIDSLSLNPDTVVQTWLSLAELKK", "values": [{"measurement": "soluble on expression in E. coli", "value": "not soluble"}]}, {"sequence": "MTYRELVERQLAVRHADLELGLSRAREQEPFVIHVSDLLDKAGIEYAVRMDKDFQTTFHLEYPITNYDTFKRAVWQTLGAYYCVCNDGDGLEIASNRPDGYAVRIVFGDVPV", "values": [{"measurement": "soluble on expression in E. coli", "value": "not soluble"}]}]}
